The source of these data is article PMC12571865, “Profiling of HIV-1 elite neutralizer cohort reveals a CD4bs bnAb for HIV-1 prevention and therapy” (Nature immunology, 2025).

The target in this experiment is T1, BG505 SOSIP.664 Env trimer (preparation for cryo-EM) (HIV-1 (strain BG505), UniProt Q2N0S6).
T1 construct: also called BG505_(SOSIP) trimer; source: Expi293F, transient co-transfection with a furin-encoding plasmid; copies: 3 + 3
The experiment is described as follows: cryo-EM structure; Fab–trimer complexes in TBS, incubated overnight at room temperature: 04_A06–PGDM1400–BG505 at 3.6:1.2:1 (Fab:Fab:trimer), purified on Superose-6 Increase; 01_D03–BG505 and 05_B08–BG505 at 3.6:1 (Fab:trimer) without further SEC. The note with it: both partners purified.

B1: PGDM1400 Fab (Fab, V domains shown)
VH: QAQLVQSGPEVRKPGTSVKVSCKAPGNTLKTYDLHWVRSVPGQGLQWMGWISHEGDKKVIVERFKAKVTIDWDRSTNTAYLQLSGLTSGDTAVYYCAKGSKHRLRDYALYDDDGALNWAVDVDYLSNLEFWGQGTAVTVSS
VL: DFVLTQSPHSLSVTPGESASISCKSSHSLIHGDRNNYLAWYVQKPGRSPQLLIYLASSRASGVPDRFSGSGSDKDFTLKISRVETEDVGTYYCMQGRESPWTFGQGTKVDIK
What is called stoichiometry N is a count of units in the complex or per binding partner. As to B1, the “stoichiometry N” value amounted to 1 Fab per trimer.
